± gives the uncertainty stated by the source.

A short description of the data set: amyloid nucleation score (Sup35N fusion, yeast selection) (log enrichment); library NNK2; higher = more nucleation; inactive = no reads after selection. A digest of the protocol:
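The nucleation score equals the log enrichment of output over input reads from DiMSum, centred on the mode score of non-aggregating sequences. It was computed only for sequences with 100 or more input reads. The reads came from Illumina sequencing of plasmid inserts from psi-negative yeast expressing Sup35N fused to peptides of 20 random codons, induced with 100 μM copper sulfate for 24 hours and grown 7 days at 30°C without adenine and uracil.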
Substance SPLVLGFSRK showed an amyloid nucleation score of -1.02 ± 0.76. Take SPYVRWDKTNLIGWEWYRVE: the amyloid nucleation score was -0.819 ± 0.43. As to SQISYEWDATIHQWLCKWFW, the amyloid nucleation score stood at 8.355 ± 0.031.

As for SQSNMILYWADRF, the amyloid nucleation score amounted to 5.33 ± 0.057. The substance SQYFYMFWMSRATITNTIMP registered an amyloid nucleation score of -0.217 ± 0.74. In turn, SRACRFTFD yielded an amyloid nucleation score of 0.49 ± 0.42. Substance SRAKMVFNFGAWFSRVCKN showed an amyloid nucleation score of 2.42 ± 0.088.

Substance SRCGLLMVSPNAVPSGLAHR registered an amyloid nucleation score of 1.18 ± 0.31. Then SRCIFVFYS, with 8.165 ± 0.059; and SREGLCCNIVYA, with -0.45 ± 0.37.

With SREYHSCKCQMLYMSQWSKG, the amyloid nucleation score was -0.787 ± 0.55. The substance SRGSSMMQIYFL registered an amyloid nucleation score of 5.995 ± 0.059. Substance SRGVS yielded an amyloid nucleation score of -0.433 ± 0.43.

With SRHTIVTGRWLFRDYQSLLW, the amyloid nucleation score came out at 0.19 ± 1.1. The substance SRHVLSKRFRWYT came in with an amyloid nucleation score of 0.196 ± 0.26. Substance SRIGVLPDNVDTSAKLAYRL gave an amyloid nucleation score of 6.95 ± 0.078. SRITCKDVMLL showed an amyloid nucleation score of -0.654 ± 0.49. For the substance SRKPSILNLRLALVSG, the amyloid nucleation score was 0.43 ± 0.33. The substance SRLPLTSMTNSHSWA returned an amyloid nucleation score of 0.363 ± 0.43.

SRLTS displayed an amyloid nucleation score of 2.32 ± 0.066. For SRNLGGNYGLGGWCNEEFRR, the amyloid nucleation score was determined as 0.185 ± 0.65. Take SRSWTLKFRLGGNVKQYCTW: the amyloid nucleation score worked out at 5.72 ± 0.091.

In turn, SRTAWVDLPDCWQVVKFGSV gave an amyloid nucleation score of -0.025 ± 1.1. SRTWEFSFR yielded an amyloid nucleation score of 2.5 ± 0.12.

Take SRVDNVSSAPAISAMGVWCG: the amyloid nucleation score stood at 1.14 ± 0.38. In turn, SRYVPMSFY gave an amyloid nucleation score of 0.125 ± 0.79.

Regarding SSAWYFSLGTDIAFDAGYSA, the amyloid nucleation score is -0.108 ± 1.1.

Regarding SSCVRLDELCAMMSMSWESQ, the amyloid nucleation score is 1.26 ± 0.38. On to SSFCNISAAGYFHIVMLRVV, for which the amyloid nucleation score was -0.3 ± 0.5.

Turning to SSFFVAPGSSLLLIRLLCSS, the amyloid nucleation score result is “inactive”. For the substance SSFQEC, the amyloid nucleation score was -1.2 ± 0.62. Then SSFVIPSKR, with -1.31 ± 0.78; and SSFVNRWCEHYNGVVVSWLL, with 0.236 ± 0.17. SSGGIDQFGRESISHHWLC displayed an amyloid nucleation score of -0.858 ± 0.76. In turn, SSKRVMKYRCDRWMADTCRK came in with an amyloid nucleation score of 0.201 ± 0.8. The same measure for SSLGIRNCVGTSYVMSPIIV: 0.178 ± 0.53. With SSLVWLKMNGNGTKTVFMN, the amyloid nucleation score was determined as 1.24 ± 0.14. SSNNMEIIYVFFLCREAQKL returned an amyloid nucleation score of -0.78 ± 1.1. The same measure for SSQCRDVGEAGNHWCLSGSG: 2.8 ± 0.14; for SSQGLPDNGTRPLGWKYR: 0.417 ± 0.4. Take SSQTKYQAFRVQATGVCAWM: the amyloid nucleation score was -0.123 ± 0.23. As to SSRCFSVYSDIMYGTFLS, the amyloid nucleation score entry is “inactive”.

SSRDKILTSMKIWMLRFLAN returned an amyloid nucleation score of 0.37 ± 0.51.

As to SSSALEANINQSMEDIKEAF, the amyloid nucleation score was -0.427 ± 1.1.

On to SSSKRNSKDPSGLGLVCVE, for which the amyloid nucleation score is 0.795 ± 0.46. Substance SSTHVPLRVFHGEIMWQQIL had an amyloid nucleation score of -0.291 ± 1.1.

As to SSTKFAHTFVHNKWVYSGFS, the amyloid nucleation score stood at 2.46 ± 0.11. The substance SSWSLCIYLINRKKAEYVVI yielded an amyloid nucleation score of 0.462 ± 0.53. Turning to SSYESLCKIYLNFCQTD, the amyloid nucleation score was 6.761 ± 0.059. The substance SSYKKYSVVN yielded an amyloid nucleation score of -1.59 ± 0.48. SSYPFNDPEMLG returned an amyloid nucleation score of -1.09 ± 0.33.

Turning to SSYSDLIQLNSNWMWCICLL, the amyloid nucleation score stood at 8.101 ± 0.06. Substance STAFFSIIIVFFISTCRETP yielded an amyloid nucleation score of -0.78 ± 0.63. STCIMDLSWCKVRRFGSTQV returned an amyloid nucleation score of -0.149 ± 0.79.

As to STCLQD, the amyloid nucleation score was -0.966 ± 1.1. The same measure for STKITAESGR: 0.502 ± 0.41; for STNEWF: -1.06 ± 0.62; for STRCCTRYVCRTAV: -0.158 ± 0.34.

As to STRTSADRSFIIMVWCNIDL, the amyloid nucleation score worked out at 3.62 ± 0.081.

As for STVELEQYGSSARADYLVWR, the amyloid nucleation score was 0.58 ± 0.64. Regarding STVFYMNLQGVFRTVSWV, the amyloid nucleation score came out at 2.8 ± 0.18. Then STVICSVYFDVVASFDIVYI, with 1.39 ± 0.24; and SVAFILVPNEWLVKRAASSG, with -0.264 ± 0.45; and SVCELKW, with 0.53 ± 0.38. Consider SVCVRT, for which the amyloid nucleation score result is “inactive”. In the case of SVDIKIFLQPAYFCNATAAV, the amyloid nucleation score came to 6.435 ± 0.039. The same measure for SVDRNNTYLYRLKYAFWAMG: 6.644 ± 0.043; for SVFGTLFDYGRRSTTFNGLK: “inactive”; for SVFKMNEGFGNEHSNAPMRG: “inactive”. The substance SVFYHLYSHWIFIVCTNTRR showed an amyloid nucleation score of -0.414 ± 0.43.

SVFYIYWRSWLFFRSLGLFI: the amyloid nucleation score result was “inactive”. Turning to SVGGETITRWKCIWMTRRTE, the amyloid nucleation score amounted to 1.77 ± 0.16.

In turn, SVKIWCFIWEFPCFMLFRAL gave an amyloid nucleation score of -0.168 ± 1.1.

SVLIAQLDAAYGISVVRSPG had an amyloid nucleation score of 0.264 ± 0.18.

In turn, SVLVVPVT registered an amyloid nucleation score of 0.182 ± 0.79. Substance SVMIWIIASNIDILSVVFRL displayed an amyloid nucleation score of -0.573 ± 1.1.

For SVNWSFRSMNIFH, the amyloid nucleation score was determined as 3.45 ± 0.055. As for SVRFPITVMFRFSRWFTETY, the amyloid nucleation score was -0.264 ± 0.37. SVSGIGWFGGEQHAWS: the amyloid nucleation score is -0.531 ± 0.79. SVSGTLFPGYCWGNGKAGHF showed an amyloid nucleation score of 1.56 ± 0.091. SVTRWEHAMAVPKKLLHSGR displayed an amyloid nucleation score of 1.05 ± 0.23.

SVVEEKIGEFTWSWDTDSAN yielded an amyloid nucleation score of 0.568 ± 0.66. Then SVVFLRLGYGKLRV, with -0.159 ± 1; and SVVVDIKGVDWVVRVLVGKR, with -0.484 ± 0.65; and SVYCSNNNTFDAFYVEWVFA, with “inactive”. SVYDTKHLLNLLDSAVISNH returned an amyloid nucleation score of -0.481 ± 0.76.

Substance SWCFVNGWWLYESAWEVMDS registered an amyloid nucleation score of -0.199 ± 1.1. The substance SWGFI had an amyloid nucleation score of -2.19 ± 0.62. Take SWITPMRHLFSNHSLGLNAY: the amyloid nucleation score was -0.298 ± 0.43. In turn, SWSRYGCGVYSDVGVTLLQF returned an amyloid nucleation score of 0.201 ± 0.63. Take SWTCFTLVVRRTAGYWVWSA: the amyloid nucleation score was 0.331 ± 0.33. SWTCHGGNLYS returned an amyloid nucleation score of 0.222 ± 0.8. SWTHRAGYIKRMSE had an amyloid nucleation score of -0.212 ± 0.55.

SYCHCASGPFSLNPYSLLVC showed an amyloid nucleation score of 0.716 ± 0.66.

As to SYDDVVILDFYDGIL, the amyloid nucleation score result was “inactive”. SYDVRVAKINSPLGG returned an amyloid nucleation score of -0.397 ± 0.79.

Substance SYFEMAYEWYCMNWMGEVIK yielded an amyloid nucleation score of 9.197 ± 0.054. As for SYFMRDSTN, the amyloid nucleation score result was “inactive”. For the substance SYFSVKHDRR, the amyloid nucleation score was -0.228 ± 0.35. For SYFWRYFM, the amyloid nucleation score is 0.087 ± 0.79. SYFYPCLRNLYLPLWWRSHS had an amyloid nucleation score of -0.515 ± 0.38.

SYGHDWVGKGKVGGIRLM gave an amyloid nucleation score of -0.904 ± 0.49. SYGLRSC displayed an amyloid nucleation score of 0.174 ± 0.63. Regarding SYHFQDLW, the amyloid nucleation score was -0.461 ± 0.25.

For the origin of these results see the supplement of paper PMC12042874.
